Measurements: patent publication US20210253725A1 (BIONTECH, published 2021)

Experiments:
[1] = target: T1, CD27 expressed on the cell surface (HT1080_CD27 cells) (human, UniProt P26842 20-260); assay: cell-based or functional assay
T1 sequence (looked up): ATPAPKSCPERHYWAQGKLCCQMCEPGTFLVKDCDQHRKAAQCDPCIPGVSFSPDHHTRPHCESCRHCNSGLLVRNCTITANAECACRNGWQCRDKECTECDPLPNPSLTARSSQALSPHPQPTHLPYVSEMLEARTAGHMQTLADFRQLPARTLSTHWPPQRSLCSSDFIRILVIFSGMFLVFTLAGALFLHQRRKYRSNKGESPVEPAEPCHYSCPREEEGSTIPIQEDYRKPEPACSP

[2] = target: T2, CD27 protein (His-tagged, Sino Biological Inc. 10039-H08B1) (human, UniProt P26842 20-192); assay: ELISA on coated His-tagged CD27
T2 construct: bought; coated onto ELISA plates; also called human CD27; recombinant protein; not shown: His tag
T2 sequence (looked up): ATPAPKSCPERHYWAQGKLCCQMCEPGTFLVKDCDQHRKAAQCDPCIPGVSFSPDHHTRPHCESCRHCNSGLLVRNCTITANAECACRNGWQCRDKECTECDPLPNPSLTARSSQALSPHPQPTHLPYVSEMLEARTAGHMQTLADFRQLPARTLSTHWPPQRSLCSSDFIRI

[3] = target: T1, CD27 expressed on the cell surface …; assay: cellular binding assay, HT1080_CD27 cells
Also: test concentration or dose not given here.

Row | Binder | IL-8, cross-linked by F(ab')2 fragment [abs. corr.] [1] [abs. corr.] | IL-8 [abs. corr.] [1] [abs. corr.] | ELISA [abs. corr.] [2] [abs. corr.] | Cellular binding assay [RFU] [3] [RFU]
1 | P018.S.03.A.F02 (antibody, V domains shown, V regions on human Ig constant parts; also called AB27_53) VH: QSVEESGGRLVTPGTPLTLTCTVSGFSLSSNAMTWVRQAPGKGLEWIGFINTGGSTYYASWAKGRFTISKTSTTVDLKITSPTTEDTATYFCARDVGDSRGYYWGLWGQGTLVTVSS VL: AYDMTQTPASVPAAVGGTVTIKCQASEDIYSLLAWYQQKPGQPPKLLIYDASDLASGVPSRFRGSGSGTDYTLTISGVESADAATYYCQQGYTTYTTVDNIFGGGTEVVVK | 1.22 | 0.736 | 3.46 | 276
2 | P018.S.01.A.E06 (antibody, V domains shown, V regions on human Ig constant parts; also called AB27_18) VH: QSLEESGGDLVKPGASLTLTCTASGIDFSSSYYMCWVRQAPGKGLEWIGCIATGGGNTYYATWAKGRFTFSETSSTTVTLQMTSLTVADTATYFCARTYPSMWYFNLWGPGTLVTVSS VL: DVVMTQTPASVSEPVGGTVTIKCQASQSIGFNLAWYQQKPGQPPNLLIYGVSTLTSGVSSRFKGSGSGTQFTLTISDLESADAATYYCQSFYAGSSAFGGGTEVVVK | 1.4 | 0.448 | 3.45 | 291
3 | P018.S.03.A.A02 (antibody, V domains shown, V regions on human Ig constant parts; also called AB27_41) VH: QSVEESGGRLVTPGTPLTLTCTVSGFSLSSYDMTWVRQAPGEGLEWIGYINTDTTTYYASWAKGRFTISRTSTTVDLEITSPTTEDTATYFCARGNDPIYIDLWGQGTLVTVSS VL: AAVLTQTPSPVSAAVGGTVSISCQSSKSVINNNWLGWYQQKPGQPPKLLISYASTLASGVPSRFSGSGSGTQFTLTISDVQSDDAATYYCAGAYSPDSENAFGGGTEVVLK | 2.2 | 0.651 | 3.44 | 373
4 | P018.S.03.A.G02 (antibody, V domains shown, V regions on human Ig constant parts; also called AB27_56) VH: QSLEESGGDLVKPGASLTLTCTASGFSFSSGYDMCWVRQAPGKGLEWIACIYAGSNNNTYYASWAKGRFTISKTSSTTVTLQVASLTAADTATYFCARAAGGYADYAYVMGDYFNFWGPGTLVTVSS VL: AYDMTQTPASVEVAVGGTVTIKCQASEDIYSILAWYQQKPGQRPKGLIYSASTLDSGVPLRFSGSGSGTEFTLTISGVQSDDAATYYCQQGYSSSNVDNVFGGGTEVVVK | 1.28 | 0.412 | 3.44 | 275
5 | P018.S.01.A.F02 (antibody, V domains shown, V regions on human Ig constant parts; also called AB27_19) VH: QQQLVESGGGLVRPGASLTLTCKASGFSFSSGYYVCWVRQAPGKGLEWIACIFAGSGGGAGYATWAKGRFTISKTSSTTVTLQMTSLTAADTATYFCARPLSGYAYGMDLWGPGTLVTVSL VL: DVVMTQTPASVSEPVEGTVTIKCQASQTISNYLAWYQQKPGQPPKLLIYGASTLESGVSSRFKGSGSGTQFTLTIYDLESADAATYYCQCTYDGSSDVGGAFGGGTEVVVK | 2.05 | 0.495 | 3.42 | 326
6 | P018.S.04.A.D02 (antibody, V domains shown, V regions on human Ig constant parts; also called AB27_71) VH: QSLEESGGRLVTPGTPLTLTCTASGFSLSTYAMGWVRQAPGEGLEWIGNINTDSGDTWYARWAKGRFTISTTSSTTVDLKITSPTIEDTATYFCARNPGDDVNLWGQGTLVTVSS VL: AQVLTQTPSPVSAAVGDTVTINCQASQSVYNNNDLAWFQQKPGQPPKLLIYRTSILASGVPSRFKGSGSGTQFTLTISDLESDDAATYYCQGYYSGVIYVFGGGTEVVVK | 1.35 | 0.294 | 3.42 | 335
7 | P018.S.03.A.B02 (antibody, V domains shown, V regions on human Ig constant parts; also called AB27_42) VH: QSLEESGGRLVTPGTPLTLTCTASGFSLSSYDMNWVRQAPGEGLEWIGTITTNSDTYYASWAKGRFTISKTSTTVDLKITSPTTEDTATYFCARGYTTFTLWGQGTLVTVSS VL: DPVLTQTPSSASEPVGGTVTINCQASQNIYSNLAWYQQKPGQPPKLLIYGASTLESGVPSRFSGSGSGTQFTLTISDLESDDAATYYCQCTDYDSNYVVDFGGGTEVVVK | 1.49 | 0.366 | 3.41 | 308
8 | P018.S.02.A.G01 (antibody, V domains shown, V regions on human Ig constant parts; also called AB27_37) VH: QSLEESGGRLVTPGTPLTLTCTVSGIDLSSNAMNWVRQAPGKGLEWIGIIYTSGSTYYASWVKGRFTISRTSTTVDLEMTSLTTEDTATYFCARGVTIDWFDLWGQGTLVTVSS VL: AAVLTQTPSSVSAAVGGTVTINCQSSPSVYSNYLSWFQQKPGQPPKLLIYGASTLTSGVPSRFKGSGSGTQFTLTINDVQSDDAATYWCLGGYGDINDTTFGGGTEVVVK | 1.52 | 0.127 | 3.41 | 332

More lines, now with the values ahead:

Row | IL-8, cross-linked by F(ab')2 fragment [abs. corr.] [1] [abs. corr.] | IL-8 [abs. corr.] [1] [abs. corr.] | ELISA [abs. corr.] [2] [abs. corr.] | Cellular binding assay [RFU] [3] [RFU] | Binder
9 | 1.86 | 0.576 | 3.41 | 387 | P018.S.06.A.A03 (antibody, V domains shown, V regions on human Ig constant parts; also called AB27_96) VH: QSVEESGGRLVTPGTPLTLTCTVSGFSLSSNAMTWVRQAPGKGLEWIGFINTGSSTYYASWAKGRFTISKTSTTVDLKITSPTTEDTATYFCARDADDSRGYYWGLWGQGTLVTVSS VL: AYDMTQTPASVPAAVGGTVTIKCQASEDIYSLLAWYQQKPGQPPKLLIYDASDLASGVPSRFRGSGSGTDYTLTISGVESADAATYYCQQGYTTYTTVDNIFGGGTEVVVK
10 | 1.65 | 0.302 | 3.45 | 300 | P018.S.07.A.C04 (antibody, V domains shown, V regions on human Ig constant parts; also called AB27_120) VH: QEQLVESGGGLVQPEGSLTLTCTASGFSFSSRFWICWVRQAPGKGLEWIACIYGGSTSATYDASWAKGRFTISKTSSTTVTLQMTSLTAADTATYFCTRLPTYDAYVFNLWGPGTLVTVSS VL: AIVMTQTPSSKSVPVGATATINCQASESVFSNNYLSWYQQKPGRSPKLLIYEASKLASGVPSRFSGSGSGTQFTLTISDVVSDDAATYYCGGYKSNNVDGYAFGGGTEVVVK
11 | 2.3 | 1.94 | 3.45 | 219 | P018.S.09.A.C06 (antibody, V domains shown, V regions on human Ig constant parts; also called AB27_149) VH: QSVEESGGRLVTPGTPLTLTCTVSGFSLSTYAMGWVRQAPGKGLEWIGIIYTGGSTYYASWAEGRFTISKTSTTVDLKITSPTPEDTATYFCTRDLGATYDYFDLWGQGTLVTVSS VL: AYDMTQTPASVEVAVGGTVTIKCQASQSISTALAWYQQKPGQRPKLLIYDTSDLASGVPSRFSGSGSGTEFTLTISGVESADAATYYCQQGYRHTNVDNPFGGGTGVVVK
12 | 1.03 | 0.408 | 3.44 | 379 | P018.S.07.A.A05 (antibody, V domains shown, V regions on human Ig constant parts; also called AB27_114) VH: QEHLEESGGDLVKPGASLTLTCKASGFDLSINVMCWVRQAPGKGPEWIVCIDNGDGSTYYASWVNGRFTISKTSSTTVTLQMTSLTAADTATYFCARPGTFTYGGNTYPGSFVLWGPGTLVTVSS VL: AFELTQTPSSVEAAVGGTVTINCQASQSISNALAWYQQKPGQPPKLLIYTASNLASGVPSRFKGSGSGTQFTLTISDLESADAATYYCQNYYVNIIGIGFGGGTEVVVK
13 | 1.25 | 0.137 | 3.42 | 408 | P018.S.10.A.G05 (antibody, V domains shown, V regions on human Ig constant parts; also called AB27_183) VH: QSVEESGGRLVTPGTPLTLTCTVSGFSLNNAHMCWVRQAPGKGLEWIGIIGASGSTYYASWAKGRFTISKTSTTVDLKMTSLTTEDTATYFCGRTDVGYTTANLWGQGTLVTVSS VL: DVVMTQTPASVSAAVGGTVTIKCQASQTISSYLSWYQQKPGQPPKRLIYSASTLASGVSSRFKGSGSGTQFTLTISDLESADAATYYCQAYDTTSGTDLWAFGGGTEVVVK
14 | 1.12 | -0.001 | 3.42 | 394 | P018.S.08.A.D01 (antibody, V domains shown, V regions on human Ig constant parts; also called AB27_137) VH: QSVEESGGRLVMPGTPLTLTCTVSGFSLSTYVMGWVRQAPGKGLECIGVIYGGGTIWYASWAKGRFTISKTSTTMDLQITSPTTEDTATYFCARDGSSSGDPGFNLWGQGTLVTVSS VL: DIVMTQTPASVSAAVGGTVTINCQASQSISNWVAWYQQKPGQPPKRLIYKASTLASGVPSRFKGSGSGTEFTLTISDLESADAATYYCQSTGSTAYGRAFGGGTEVVVR
15 | 1.41 | 0.203 | 3.42 | 295 | P018.S.07.A.B05 (antibody, V domains shown, V regions on human Ig constant parts; also called AB27_117) VH: QSLEESGGDLVKPGASLTLTCTASEFSFSNNYYICWVRQAPGKGLEWIACIYVHSGTTDYATWAKGRFTISRTSSTTVTLQMTSLTVADTATYFCARGRSGYYADAFDTWGPGTLVTVSS VL: ALDMTQTPSPVSAAVGGTVTINCQASQSVYNNNNLAWYQQKPGQPPKLLIYLASNLASGVPSRFKGSGSGTQFTLTISEIQSDDAATYYCQGTDSSSGWEHAFGGGTEVVVK
16 | 2.29 | 0.412 | 3.42 | 443 | P018.S.10.A.H01 (antibody, V domains shown, V regions on human Ig constant parts; also called AB27_184) VH: QEQLEESGGDLVKPGASLTLTCTASGFSFSSDYDMCWVSQAPGKGLEWIACIIGGSSDSTWYASWAKGRFTISKTSSTTVTLQVTGLTAADTATYFCARNVGFSYYDLWGPGTLVTVSS VL: AQVLTQTPSPVSAAVGGTVTINCQASQSLYNNKNLAWYQQKPGQPPKLLIYYASTLASGVSSRFKGSGSGTQFTLTISGVQSDDAATYYCQGEFSCSSGDCFAFGGGTEVVVK
